Measured values from patent US20250304666A1 (ALCHEMAB THERAPEUTICS, published 2025).
Where a chain is given by its changes, count along the chain named.

B1: 4894 phage (scFv)
scFv displayed on phage: QVQLVESGGGVVQPGRSLRLSCAASGFTFSIYGMHWVRQAPGKGLEWVAVMSFDGKTKYYADSVKGRFTISRDNSKNTLYLQMNSLRAEDTAVYYCAKGGATAAVFDSWGQGTLVTVSGGGGSGGGGSGGGGSDIVMTQSPDSLAVSLGERATINCKSSQSLLYRSNNKNYLAWYQQKPGQPPKLLIYWASTRESGVPDRFSGSGSGTDFTLTISSLQAEDVAVYYCQQYYNPPWTFGQGTKVEIK
notes: also called phage displaying the ATL4894 scFv
B2: ATL_0005155 (antibody, human IgG1, kappa, V domains shown)
VH: QVQLVESGGGVVQPGRSLRLSCAASGFTFSNYGMHWVRQAPGKGLEWVAVTSFDGKTKYYADSVKGRFTISRDNSKNTLYLQMNSLRAEDTAVYYCAKGGATAAVFDSWGQGTLVTVSS
VL: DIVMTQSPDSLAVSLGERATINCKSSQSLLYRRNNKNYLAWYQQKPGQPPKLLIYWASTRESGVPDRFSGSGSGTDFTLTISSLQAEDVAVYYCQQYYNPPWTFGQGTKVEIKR
notes: one of the 10 lead mAbs; IgG1; also called ATL5155; ATL_0005155-001
B3: ATL_0004894 (antibody, human IgG1, kappa, V domains shown)
VH: B2 VH with N31I, T51M
VL: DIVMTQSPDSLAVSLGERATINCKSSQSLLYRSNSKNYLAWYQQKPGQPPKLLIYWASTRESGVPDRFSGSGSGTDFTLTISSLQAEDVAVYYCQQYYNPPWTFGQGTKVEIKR
notes: germlined ATL4717, IgG1; also called ATL4894; 4894 IgG
B4: ATL_0004715 (antibody, human IgG1, kappa, V domains shown)
VH: EVQLVESGGGVVQPGRSLRLSCAASGFTFSRYGMHWVRQAPGKGLEWVAVMSYDGSTKYYADSVKGRFAISRDNPKNTLFLQMNSLRPDDTAVYYCAKGGAAAAVMDVWGKGTTVTVSS
VL: DIVMTQSPDSLTVSLGERATISCKSSQRLLYSSNNKNYLAWYQQKPGQPPKLLMYWASTRESGVPDRFSGSGSGTDFSLTISSLQAEDVAVYYCQQYYNPPWTFGQGTKVEVKR
notes: also called ATL4715

Legend:
reduced CFHR5 [1] = biological target: T1, reduced CFHR5 (UniProt Q9BXR6 19-569, limits assumed); test: phage ELISA on reduced CFHR5 [B]
T1 sequence (looked up): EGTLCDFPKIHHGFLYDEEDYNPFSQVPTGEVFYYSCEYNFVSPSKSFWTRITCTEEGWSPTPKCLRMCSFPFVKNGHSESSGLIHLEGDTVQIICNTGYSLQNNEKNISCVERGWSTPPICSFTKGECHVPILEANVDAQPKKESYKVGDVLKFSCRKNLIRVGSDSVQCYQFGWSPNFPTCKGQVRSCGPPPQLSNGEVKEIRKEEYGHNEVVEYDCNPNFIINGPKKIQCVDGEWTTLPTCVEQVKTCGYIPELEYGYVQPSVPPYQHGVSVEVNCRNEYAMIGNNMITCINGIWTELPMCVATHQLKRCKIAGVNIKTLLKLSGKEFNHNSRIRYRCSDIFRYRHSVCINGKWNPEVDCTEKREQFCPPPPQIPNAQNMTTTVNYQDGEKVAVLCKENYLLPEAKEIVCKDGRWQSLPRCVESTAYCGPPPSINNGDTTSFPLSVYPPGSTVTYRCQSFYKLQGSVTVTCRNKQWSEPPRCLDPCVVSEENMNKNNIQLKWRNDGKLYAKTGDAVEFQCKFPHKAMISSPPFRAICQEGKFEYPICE

non-reduced CFHR5 = biological target: T2, non-reduced CFHR5; test: ELISA, non-reduced antigen
T2 construct: also called CFHR5 (NON-REDUCED)
T2 chain: T1 sequence (looked up)

non-reduced CFHR4 = biological target: T3, non-reduced CFHR4; test: ELISA, non-reduced antigen
T3 construct: not reduced; also called CFHR4 (NON-REDUCED)

non-reduced CFHR1 = biological target: T4, non-reduced CFHR1; test: ELISA, non-reduced antigen
T4 construct: also called CFHR1 (NON-REDUCED)
T4 chain: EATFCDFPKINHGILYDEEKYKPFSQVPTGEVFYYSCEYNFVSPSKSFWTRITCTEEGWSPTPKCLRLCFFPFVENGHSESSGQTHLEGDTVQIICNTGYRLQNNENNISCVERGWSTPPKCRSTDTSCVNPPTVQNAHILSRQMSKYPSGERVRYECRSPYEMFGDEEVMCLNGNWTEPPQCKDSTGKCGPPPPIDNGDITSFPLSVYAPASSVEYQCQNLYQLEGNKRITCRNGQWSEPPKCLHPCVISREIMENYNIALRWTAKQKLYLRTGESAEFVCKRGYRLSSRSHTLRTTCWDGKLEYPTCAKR

non-reduced CFHR3 = biological target: T5, non-reduced CFHR3; test: ELISA, non-reduced antigen
T5 construct: also called CFHR3 (NON-REDUCED)
T5 chain: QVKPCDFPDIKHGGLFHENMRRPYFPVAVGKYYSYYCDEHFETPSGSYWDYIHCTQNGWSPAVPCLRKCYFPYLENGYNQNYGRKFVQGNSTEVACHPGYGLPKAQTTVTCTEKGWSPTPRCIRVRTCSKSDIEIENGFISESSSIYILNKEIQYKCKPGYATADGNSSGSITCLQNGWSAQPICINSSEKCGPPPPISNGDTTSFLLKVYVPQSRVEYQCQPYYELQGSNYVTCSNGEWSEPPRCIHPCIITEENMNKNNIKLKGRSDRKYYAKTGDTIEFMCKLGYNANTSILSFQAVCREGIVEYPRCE

non-reduced CFHR2 = biological target: T6, non-reduced CFHR2; test: ELISA, non-reduced antigen
T6 construct: also called CFHR2 (NON-REDUCED)
T6 chain: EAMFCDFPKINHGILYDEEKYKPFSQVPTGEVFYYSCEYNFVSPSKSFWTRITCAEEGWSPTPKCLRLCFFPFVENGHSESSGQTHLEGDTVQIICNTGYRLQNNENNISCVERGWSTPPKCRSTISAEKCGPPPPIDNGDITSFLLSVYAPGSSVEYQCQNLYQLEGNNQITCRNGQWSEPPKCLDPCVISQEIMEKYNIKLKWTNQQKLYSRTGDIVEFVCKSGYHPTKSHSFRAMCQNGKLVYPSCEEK

reduced CFHR3 [2] = biological target: T7, reduced CFHR3 (UniProt Q02985 19-330, limits assumed); test: ELISA, reduced antigen
T7 sequence (looked up): T5 chain

reduced CFHR5 [3] = biological target: T1, reduced CFHR5; test: ELISA, reduced antigen
reduced CFHR2 = biological target: T8, reduced CFHR2 (UniProt P36980 19-270, limits assumed); test: ELISA, reduced antigen
T8 sequence (looked up): T6 chain

reduced CFHR1 = biological target: T9, reduced CFHR1 (UniProt Q03591 19-330, limits assumed); test: ELISA, reduced antigen
T9 sequence (looked up): T4 chain

reduced CFHR5 [4] = biological target: T1, reduced CFHR5; test: ELISA on reduced CFHR5
reduced CFHR3 [5] = biological target: T7, reduced CFHR3; test: ELISA on reduced CFHR3
non-reduced CFH = biological target: T10, non-reduced CFH; test: ELISA, non-reduced antigen
T10 construct: also called CFH (NON-REDUCED)
T10 chain: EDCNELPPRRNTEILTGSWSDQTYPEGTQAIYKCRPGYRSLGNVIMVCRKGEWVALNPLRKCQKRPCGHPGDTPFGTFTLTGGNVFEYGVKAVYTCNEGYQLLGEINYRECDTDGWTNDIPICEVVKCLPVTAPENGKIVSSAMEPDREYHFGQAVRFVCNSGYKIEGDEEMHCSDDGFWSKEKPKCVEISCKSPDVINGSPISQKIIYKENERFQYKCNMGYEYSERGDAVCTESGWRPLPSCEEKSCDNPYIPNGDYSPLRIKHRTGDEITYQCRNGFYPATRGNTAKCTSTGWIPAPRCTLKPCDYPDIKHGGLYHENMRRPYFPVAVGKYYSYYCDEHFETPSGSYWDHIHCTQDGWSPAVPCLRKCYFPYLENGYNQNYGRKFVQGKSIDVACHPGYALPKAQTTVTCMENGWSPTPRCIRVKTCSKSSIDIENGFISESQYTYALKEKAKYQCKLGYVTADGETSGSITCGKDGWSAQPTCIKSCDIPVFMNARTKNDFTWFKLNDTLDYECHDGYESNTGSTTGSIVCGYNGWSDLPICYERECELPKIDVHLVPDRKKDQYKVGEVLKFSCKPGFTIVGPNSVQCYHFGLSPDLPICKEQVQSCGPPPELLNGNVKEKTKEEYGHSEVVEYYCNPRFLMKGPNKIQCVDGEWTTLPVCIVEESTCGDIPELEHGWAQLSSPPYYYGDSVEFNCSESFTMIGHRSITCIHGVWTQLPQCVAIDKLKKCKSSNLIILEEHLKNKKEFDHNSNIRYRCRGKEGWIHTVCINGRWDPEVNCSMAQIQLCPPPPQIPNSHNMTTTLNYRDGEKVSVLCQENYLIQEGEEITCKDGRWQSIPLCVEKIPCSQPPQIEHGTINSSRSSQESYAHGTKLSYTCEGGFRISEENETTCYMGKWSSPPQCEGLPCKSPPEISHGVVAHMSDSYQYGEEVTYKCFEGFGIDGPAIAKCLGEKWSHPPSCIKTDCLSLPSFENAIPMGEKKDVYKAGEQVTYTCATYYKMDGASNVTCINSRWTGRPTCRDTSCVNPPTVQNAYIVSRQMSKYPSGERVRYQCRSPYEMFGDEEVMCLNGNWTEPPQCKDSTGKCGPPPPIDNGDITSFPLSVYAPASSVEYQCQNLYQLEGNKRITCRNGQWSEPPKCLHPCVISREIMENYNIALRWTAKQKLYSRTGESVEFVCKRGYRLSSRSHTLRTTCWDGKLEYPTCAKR

reduced CFH [6] = biological target: T11, reduced CFH (Homo sapiens (Human), UniProt P08603 860-1231, limits assumed); test: ELISA, reduced antigen
T11 construct: also called CFH (reduced)
T11 sequence: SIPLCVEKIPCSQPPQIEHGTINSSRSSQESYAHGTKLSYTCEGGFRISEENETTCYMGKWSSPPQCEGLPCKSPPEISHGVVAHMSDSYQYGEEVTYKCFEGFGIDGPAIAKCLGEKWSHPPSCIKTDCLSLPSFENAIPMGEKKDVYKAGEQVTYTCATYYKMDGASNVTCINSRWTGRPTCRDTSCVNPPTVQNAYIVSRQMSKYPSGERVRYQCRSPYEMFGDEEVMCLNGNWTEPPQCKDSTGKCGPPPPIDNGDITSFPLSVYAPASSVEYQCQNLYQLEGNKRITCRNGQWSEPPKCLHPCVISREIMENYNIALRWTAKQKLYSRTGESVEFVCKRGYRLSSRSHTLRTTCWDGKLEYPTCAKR

reduced CFH [7] = biological target: T11, reduced CFH; test: ELISA on reduced CFH after heating the mAb (70 C, 1 h, as Figure 16)

Row | Binder | binding result (reduced CFHR5 [1]) | binding result (non-reduced CFHR5) | fold change vs isotype at 1 ug/ml (non-reduced CFHR5) | fold change vs isotype at 1 ug/ml (non-reduced CFHR4) | fold change vs isotype at 1 ug/ml (non-reduced CFHR1) | binding result (non-reduced CFHR3) | fold change vs isotype at 1 ug/ml (non-reduced CFHR3) | fold change vs isotype at 1 ug/ml (non-reduced CFHR2) | fold change vs isotype at 1 ug/ml (reduced CFHR3 [2]) | fold change vs isotype at 1 ug/ml (reduced CFHR5 [3]) | fold change vs isotype at 1 ug/ml (reduced CFHR2) | fold change vs isotype at 1 ug/ml (reduced CFHR1) | binding result (reduced CFHR5 [4]) | binding result (reduced CFHR3 [5]) | fold change vs isotype at 1 ug/ml (non-reduced CFH) | fold change vs isotype at 1 ug/ml (reduced CFH [6]) | Harsh Heat challenge ELISA value (reduced CFH [7]) | binding result (reduced CFHR3 [2]) | binding result (reduced CFHR5 [3])
1 | B1 | no binding |  |  |  |  |  |  |  |  |  |  |  |  |  |  |  |  |  | 
2 | B2 |  | no binding (tested: 1 ug/ml) | 1 fold | 1 fold | 13 fold | no binding (tested: 1 ug/ml) | 1 fold | 7 fold | 1 fold | 1 fold | 11.3 fold | 23 fold | no binding (tested: 100 ug/ml) | no binding (tested: 100 ug/ml) |  |  |  |  | 
3 | B3 |  |  | 0.9 fold |  | 16.6 fold |  | 1 fold | 7.7 fold | 1 fold | 1 fold | 10.3 fold | 24.4 fold |  |  | 9.8 fold | 18.4 fold | 0.58 |  | 
4 | B4 |  | no binding (tested: 1 ug/ml) | 0.9 fold | 0.9 fold | 10.1 fold | no binding (tested: 1 ug/ml) | 1 fold | 3.9 fold | 0.9 fold | 1 fold | 9.9 fold | 22.9 fold |  |  | 10 fold | 17.2 fold | 0.09 | no binding (tested: 1 ug/ml) | no binding (tested: 1 ug/ml)
